Experimental findings from paper PMC12362618, “Development of the First Small-Molecule Inhibitor Targeting Oncostatin M for Treatment of Breast Cancer” (Journal of Medicinal Chemistry, 2025) are described below.

For this test, the target named is T1, immobilized OSM (Homo sapiens, UniProt P13725).
T1 construct: purchased R&D Systems 671-GP
T1 sequence (P13725 26-212 limits assumed): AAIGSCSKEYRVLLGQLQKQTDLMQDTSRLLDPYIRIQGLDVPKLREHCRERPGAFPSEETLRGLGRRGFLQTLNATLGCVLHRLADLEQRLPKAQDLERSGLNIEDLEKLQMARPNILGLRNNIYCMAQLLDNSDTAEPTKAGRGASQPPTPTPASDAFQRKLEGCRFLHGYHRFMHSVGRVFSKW
Description: SPR binding kinetics of gp130 on immobilized OSM. The note with it: 25 °C. The method, then:
SPR assays were used to investigate the ability of SMI-10B13 to disrupt the binding of the OSM receptor. We began our SPR assays by replicating the gp130-to-immobilized OSM binding kinetic experiment published by Chollangi et al. to evaluate the reliability of our setup. In this experiment, increasing concentrations of gp130 were injected, and the association and dissociation phases were monitored. […] However, the signal generated was insufficient for meaningful results, likely due to the suboptimal availability of accessible binding sites for […], although maximum feasible concentrations of both immobilized and injected gp130 were reached. As a result, we shifted our focus to assess whether SMI-10B13 could influence the recruitment of gp130 to OSM in a surface competition binding assay. […] While this effect could be justified by site II competitive binding at high SMI concentrations, the NMR CSP experiments are indicative of SMI binding at site III (Figure ). […]
SPR experiments were performed on a Reichert SR7000 instrument that was fed by a Surveyor LC autosampler and pump. […] The real-time changes in refractive index units of the association and dissociation phases were monitored. […]

B1: gp130: glycoprotein 130 receptor subunit (R&D Systems, cat. #671-GP) injected over immobilized OSM in SPR (protein)
chain: ELLDPCGYISPESPVVQLHSNFTAVCVLKEKCMDYFHVNANYIVWKTNHFTIPKEQYTIINRTASSVTFTDIASLNIQLTCNILTFGQLEQNVYGITIISGLPPEKPKNLSCIVNEGKKMRCEWDGGRETHLETNFTLKSEWATHKFADCKAKRDTPTSCTVDYSTVYFVNIEVWVEAENALGKVTSDHINFDPVYKVKPNPPHNLSVINSEELSSILKLTWTNPSIKSVIILKYNIQYRTKDASTWSQIPPEDTASTRSSFTVQDLKPFTEYVFRIRCMKEDGKGYWSDWSEEASGITYEDRPSKAPSFWYKIDPSHTQGYRTVQLVWKTLPPFEANGKILDYEVTLTRWKSHLQNYTVNATKLTVNLTNDRYLATLTVRNLVGKSDAAVLTIPACDFQATHPVMDLKAFPKDNMLWVEWTTPRESVKKYILEWCVLSDKAPCITDWQQEDGTVHRTYLRGNLAESKCYLITVTPVYADGPGSPESIKAYLKQAPPSKGPTVRTKKVGKNEAVLEWDQLPVDVQNGFIRNYTIFYRTIIGNETAVNVDSSHTEYTLSSLTSDTLYMVRMAAYTDEGGKDGPEFTFTTPKFAQGEIE
B1 came in with a dissociation constant (Kd) of 20.5 nM.
